These results are taken from paper PMC7321962.

The target in series [1] is T1, XPG-FLAG (full-length WT) (Homo sapiens, UniProt P28715 1-1186).
T1 sequence: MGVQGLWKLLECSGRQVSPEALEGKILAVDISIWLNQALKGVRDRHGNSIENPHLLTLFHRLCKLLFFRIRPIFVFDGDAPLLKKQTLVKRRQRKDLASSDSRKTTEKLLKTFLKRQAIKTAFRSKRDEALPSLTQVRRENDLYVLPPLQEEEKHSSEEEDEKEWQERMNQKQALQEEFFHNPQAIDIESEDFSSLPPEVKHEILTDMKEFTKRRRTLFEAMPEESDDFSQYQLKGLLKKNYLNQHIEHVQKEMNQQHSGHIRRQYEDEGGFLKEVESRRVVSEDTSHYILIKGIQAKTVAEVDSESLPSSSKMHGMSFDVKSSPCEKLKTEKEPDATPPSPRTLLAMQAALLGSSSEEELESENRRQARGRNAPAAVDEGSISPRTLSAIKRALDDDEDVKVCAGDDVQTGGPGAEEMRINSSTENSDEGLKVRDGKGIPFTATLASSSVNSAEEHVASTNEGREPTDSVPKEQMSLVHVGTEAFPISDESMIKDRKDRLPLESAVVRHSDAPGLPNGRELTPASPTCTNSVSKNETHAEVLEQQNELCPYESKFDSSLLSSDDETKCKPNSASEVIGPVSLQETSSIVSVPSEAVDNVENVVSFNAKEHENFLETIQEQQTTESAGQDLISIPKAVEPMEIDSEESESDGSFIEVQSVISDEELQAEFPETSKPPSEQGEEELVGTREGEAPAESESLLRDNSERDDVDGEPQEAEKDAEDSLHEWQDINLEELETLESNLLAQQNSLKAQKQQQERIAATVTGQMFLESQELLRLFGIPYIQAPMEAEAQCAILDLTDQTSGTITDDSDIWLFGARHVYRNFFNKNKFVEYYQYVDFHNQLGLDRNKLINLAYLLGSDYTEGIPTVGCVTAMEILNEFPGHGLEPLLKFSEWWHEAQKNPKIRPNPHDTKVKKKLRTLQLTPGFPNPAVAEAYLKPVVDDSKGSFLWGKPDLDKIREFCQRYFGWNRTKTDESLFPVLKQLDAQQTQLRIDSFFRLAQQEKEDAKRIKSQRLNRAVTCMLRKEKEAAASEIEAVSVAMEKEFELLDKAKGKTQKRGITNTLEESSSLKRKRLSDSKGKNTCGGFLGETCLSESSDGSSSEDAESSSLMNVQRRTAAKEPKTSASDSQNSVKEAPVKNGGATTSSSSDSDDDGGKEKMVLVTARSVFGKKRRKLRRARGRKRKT
The experiment in a line: EMSA.

The next series has as its target T2, XPG FF67,68AA (Homo sapiens, UniProt P28715 1-1186, F67A;F68A).
T2 sequence: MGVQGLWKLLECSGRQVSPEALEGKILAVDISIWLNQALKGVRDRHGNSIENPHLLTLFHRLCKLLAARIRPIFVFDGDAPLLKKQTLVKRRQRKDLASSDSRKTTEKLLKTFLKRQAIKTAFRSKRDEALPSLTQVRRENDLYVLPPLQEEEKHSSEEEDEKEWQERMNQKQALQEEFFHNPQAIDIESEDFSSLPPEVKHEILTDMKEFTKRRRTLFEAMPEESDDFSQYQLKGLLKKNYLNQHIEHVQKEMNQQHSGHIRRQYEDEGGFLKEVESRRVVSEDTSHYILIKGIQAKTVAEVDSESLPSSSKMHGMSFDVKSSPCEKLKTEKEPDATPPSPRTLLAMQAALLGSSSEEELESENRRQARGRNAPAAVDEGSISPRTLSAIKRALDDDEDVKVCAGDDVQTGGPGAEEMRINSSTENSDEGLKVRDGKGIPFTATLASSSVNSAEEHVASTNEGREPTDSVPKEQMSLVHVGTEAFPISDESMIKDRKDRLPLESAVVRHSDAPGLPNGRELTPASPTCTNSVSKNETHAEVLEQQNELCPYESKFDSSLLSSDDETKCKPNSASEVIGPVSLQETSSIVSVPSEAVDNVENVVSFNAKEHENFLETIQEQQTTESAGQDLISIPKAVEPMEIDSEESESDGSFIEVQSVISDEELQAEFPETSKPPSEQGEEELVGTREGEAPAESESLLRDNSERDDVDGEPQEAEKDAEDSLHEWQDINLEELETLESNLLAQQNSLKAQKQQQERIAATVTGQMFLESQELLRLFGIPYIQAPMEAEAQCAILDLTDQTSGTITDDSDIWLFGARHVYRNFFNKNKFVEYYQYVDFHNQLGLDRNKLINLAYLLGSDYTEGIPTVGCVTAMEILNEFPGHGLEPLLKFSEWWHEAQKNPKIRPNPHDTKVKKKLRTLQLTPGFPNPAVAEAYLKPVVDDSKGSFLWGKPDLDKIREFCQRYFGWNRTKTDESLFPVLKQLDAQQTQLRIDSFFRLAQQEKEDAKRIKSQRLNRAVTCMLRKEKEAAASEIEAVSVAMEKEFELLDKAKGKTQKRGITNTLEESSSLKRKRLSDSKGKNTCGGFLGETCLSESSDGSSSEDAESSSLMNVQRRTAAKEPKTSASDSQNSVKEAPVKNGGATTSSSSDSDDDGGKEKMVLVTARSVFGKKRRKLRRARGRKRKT
The experiment in a line: EMSA.

B1: HP15T/C 15-nt bubble DNA (mixed)
DNA 1: CGCGAAGCGGGGCAGACAACGTGGCGCTGTTTTTTTTTTTTTTTGTGTCCTAGCACAGCGTATG
DNA 2: CGCGAAGCGCATACGCTGTGCTAGGACACCCCCCCCCCCCCCCCCAGCGCCACGTTGTCTGCCC
Regarding B1, the binding result (in series [1]; with XPG FF67,68AA) was “binds” in each case.
